The chains are these.
B1: LC3C (microtubule-associated protein 1A/1B light chain 3C) (natural protein, human, UniProt Q9BXW4 1-126, looked up)
chain: MPPPQKIPSVRPFKQRKSLAIRQEEVAGIRAKFPNKIPVVVERYPRETFLPPLDKTKFLVPQELTMTQFLSIIRSRMVLRATEAFYLLVNNKSLVSMSATMAEIYRDYKDEDGFVYMTYASQETFG
B2: p62 WT-AIM peptide (peptide)
peptide: SGGDDDWTHLSS
notes: also called p62 AIM; source: synthetic peptide; bought: Genosphere Biotechnologies and Peptide Synthetics

Holding throughout (details): both partners purified
The target in the assay “p62 WT-AIM peptide” is B2. Description: native MS; ESI-MS competition binding under nondenaturing conditions: each hATG8 titrated into an equimolar mixture of WT-AIM and L341V-AIM peptides (each 10 μM); read-out is the ratio of peak intensities of unbound WT and L341V peptides; ratios given for 20 μM hATG8; two independent experiments.
Assay [1] addresses LC3A (microtubule-associated protein 1A/1B light chain 3A) (human, UniProt Q9H492 1-121). The experiment in a line: ITC; MicroCal VP-ITC, 30 °C; protein 10 μM in the cell, 10 μl injections of peptide (100-150 μM); 25 mM potassium phosphate, 150 mM NaCl, pH 7.0; no reducing agent; one site binding model; two independent measurements. Background: Isothermal titration calorimetry measures the heat released or taken up as one component is titrated into another.

Assay [2] deals with LC3B (microtubule-associated protein 1A/1B light chain 3B) (human, UniProt Q9GZQ8 1-120). Described as above.
Assay [3] deals with B1. The assay is described as above.
For a further assay, the target named is GABARAPL1 (human, UniProt Q9H0R8 1-117). Described as above.
GABARAPL1, sequence (Q9H0R8 whole entry): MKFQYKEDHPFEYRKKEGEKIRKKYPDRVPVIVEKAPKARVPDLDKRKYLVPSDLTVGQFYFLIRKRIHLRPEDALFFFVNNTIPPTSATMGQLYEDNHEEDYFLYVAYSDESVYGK
The next assay has as its target T1, GABARAPL2 (human, UniProt P60520 1-117).
T1 construct: GABARAPL2, human ATG8 protein of the GABARAP subfamily; 15N-labelled (13C,15N for assignment) in M9 minimal medium for the NMR experiments; Cloned into pGEX-4T-1 between BamHI and XhoI; thrombin cleavage may leave a few vector residues at the N-terminus (surmised); also called hATG8; source: E. coli BL21 (DE3), purified (Glutathione Sepharose, thrombin cleavage, ion exchange, gel filtration); not …
The description is as above.

T1 sequence (P60520 whole entry): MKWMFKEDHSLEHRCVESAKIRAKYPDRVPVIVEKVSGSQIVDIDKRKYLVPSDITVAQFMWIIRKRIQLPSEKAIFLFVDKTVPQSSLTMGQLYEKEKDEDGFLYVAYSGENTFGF

B1: in the assay with p62 WT-AIM peptide, the “ratio of unbound WT:L341V AIM peptides at 20 μM hATG8 (reference: L341V-AIM)” value was > 0.95.

In the case of B2, the Kd in assay [1] came to 4.55 µM; in assay [2] it was 3.83 µM; in assay [3] it was 16.8 µM; with GABARAPL1, 3.23 µM. Besides, the dH in assay [1] was -17.9 kcal/mol; in assay [2], -10.7 kcal/mol; in assay [3], -3.59 kcal/mol; in the assay with GABARAPL1, -5.61 kcal/mol; in the assay with GABARAPL2 it was -2.43 kcal/mol. The “stoichiometry N” value in assay [1] is 1.05; in assay [3] it was 0.82; with GABARAPL1, 0.86; in the assay with GABARAPL2, 1.07.

B3: p62 L341V-AIM peptide (peptide)
peptide: SGGDDDWTHVSS
notes: also called L341V-mutant peptide; mutant AIM; source: synthetic peptide; bought: Genosphere Biotechnologies and Peptide Synthetics
For the molecule B3, the dH is -6.3 kcal/mol in assay [1], -5.38 kcal/mol in assay [3], -5.37 kcal/mol in the assay with GABARAPL1 and -4 kcal/mol in the assay with GABARAPL2. Moreover, the Kd in assay [2] was 8.47 µM; with GABARAPL1, 5.78 µM; with GABARAPL2, 6.99 µM. Further, the “stoichiometry N” value in assay [3] was 0.9; with GABARAPL1 it was 0.98; in the assay with GABARAPL2 it was 1.03.

As a reminder, the Kd is the free concentration of one partner at which half of the binding sites on the other are occupied at equilibrium, for simple one-to-one binding. Low values mean higher affinity, high ones lower affinity. Usually stoichiometry N stands for the number of molecules, sites or subunits per partner or assembly.

These data come from PMC8762078 (The Journal of Biological Chemistry, 2021).
